T1: human DKK1 (human, UniProt O94907 32-266)
T1 construct: also called huDKK1; hDKK1
T1 sequence: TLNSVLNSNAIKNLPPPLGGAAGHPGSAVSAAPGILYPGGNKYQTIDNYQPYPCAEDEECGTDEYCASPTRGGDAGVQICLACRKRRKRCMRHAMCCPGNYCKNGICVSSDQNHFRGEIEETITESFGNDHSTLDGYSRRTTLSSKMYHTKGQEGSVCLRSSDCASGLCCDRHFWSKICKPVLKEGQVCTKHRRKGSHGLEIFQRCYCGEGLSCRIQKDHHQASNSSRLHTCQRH

T2: mouse DKK1 (mouse, UniProt O54908 32-272)
T2 construct: also called murine DKK1
T2 sequence: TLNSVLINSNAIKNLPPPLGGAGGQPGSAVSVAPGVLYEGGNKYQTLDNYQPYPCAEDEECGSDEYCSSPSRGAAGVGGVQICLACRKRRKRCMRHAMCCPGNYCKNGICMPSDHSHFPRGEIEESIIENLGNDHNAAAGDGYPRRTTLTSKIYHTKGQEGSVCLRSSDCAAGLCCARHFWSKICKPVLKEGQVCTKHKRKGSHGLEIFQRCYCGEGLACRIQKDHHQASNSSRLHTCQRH


Tests used:
human DKK1 [1] = target: T1, human DKK1; test: BiaCore 2000
From the text: BiaCore allowed us to determine the kd of the selected antibodies.

human DKK1 [2] = target: T1, human DKK1; test: cell-based or functional assay
human DKK1 [3] = target: T1, human DKK1; test: KinExA 3000 equilibrium binding in solution
Procedure: (§1) Accordingly, the affinity of several of these antibodies to DKK1 was further assessed by an equilibrium binding analysis using the more sensitive KinExAtm 3000. For these measurements, Reacti-Gel 6× beads (Pierce, Rockford, Ill.) were pre-coated with human, cynomologous or mouse DKK1 and blocked with BSA. One hundred pM, 300 pM, or 1000 pM of the antibody was mixed with various concentrations of human, mouse or cyno DKK1, ranging in concentration from 1 pM to 50 nM, and equilibrated at room temperature for 8 hours. The mixtures were then passed over the DKK1-coated beads. The amount of bead-bound anti-DKK1 antibody was quantified using goat anti-human-IgG antibody labeled with a fluorescent tag (Cy5; Jackson Immuno Research, West Grove, Pa.). The amount of fluorescent signal measured was proportional to the concentration of free anti-DKK1 antibody in each reaction mixture at equilibrium. The dissociation equilibrium constant (Kd) was obtained from nonlinear regression of the competition curves using a dual-curve one-site homogeneous binding model using the KinExA software.

mouse DKK1 = target: T2, mouse DKK1; test: KinExA 3000 equilibrium binding in solution
Procedure: as §1

koff (human DKK1 [1])	TCF EC50 (human DKK1 [2])	ST2 EC50 (human DKK1 [2])	Kd (human DKK1 [3])	Kd (mouse DKK1)	Binder
0.00092 s⁻¹	60.7 nM				2.47.1 (antibody, V domains shown, Fully human hybridoma IgG, kappa (Vk)) VH: QVQLQESGPGLVKPSQTLSLTCTVSGGSISSGGYYWSWIRQHPGKGLEWIGDIYYSGSTYYNPSLKSRVTISVDTSKNQFSLKLSSVTAADTAVYYCARDRAYGDYGGDYYYGMDVWGQGTTVTVSS VL: DIVMTQTPLSLPVTPGEPASISCRSSQSLLDSDDGDTYLDWYLQKPGQSPQLLIYTLSYRASGVPDRFSGSGSGTDFTLKISRVEAEDVGVYYCMQRIEFPFTFGPGTKVDIK
< 2e-05 s⁻¹	3.22 nM	5.03 nM	0.06 nM	0.025 nM	5.80.1 (antibody, V domains shown, Fully human hybridoma IgG, lambda (Vl)) VH: EVQLVQSGAEVKKPGESLKISCKGSGYSFTSYWIGWVRQMPGKGLEWMGIIYPGDSDTRYSPSFQGQVTISADKSISTAYLQWSSLTASDTAMYYCARQGESFDYWGQGTLVTVSS VL: QSVLTQPPSVSGAPGQRVTISCTGSSSNIGADYDVHWYQQLPGTAPKLLIYDYSNRPSGVPDRFSGSKSGTSASLAITGLQAEDEADYYCQSYDNSLSGYVVFGGGTKLTVL
	4.53 nM	10.6 nM			5.85.1 (antibody, V domains shown) VH: EVQLVQSGAEVKKPGESLKISCKVSGYSFTTYWIGWVRQMPGKGLDWMGIIYPGDSDTRYSPSFQGQVTISADKSISTAYLQWSSLKASDTAMYYCARQGIAFDYWGQGTLVTVSS VL: QSVLTQPPSVSGAPGQRVTISCTGSSSNIGAGYDVHWYQQLPRTAPKLLIYGNSNRPSGVPDRFSDSKSGTSASLAITGLQAEDEADYYCQSYDSSLSVIFGGGTKLTVL
0.000181 s⁻¹	1.01 nM	4.29 nM			5.23.1 (antibody, V domains shown) VH: QVQLVESGGGVVQPGRSLRLSCAASGFTFSSYGMHWVRQAPGKGLEWVAVIWCDGSNKYYADSVKGRFTISRDSSKNTLYLQMNSLRAEDTAVYYCARGGYGSGSYEDYYYGMDVWGQGTTVTVSS VL: not shown
< 2e-05 s⁻¹	2.14 nM	6.23 nM	0.008 nM	0.14 nM	5.77.1 (antibody, V domains shown, Fully human hybridoma IgG, lambda (Vl)) VH: QVQLVQSGAEVKKPGASVKVSCKASGYTFTSYDINWVRQATGQGLEWMGWMNLNSDNTGYAQKFQGRVTMTRNTSISTAYMELSSLRSEDTAVYYCASIAARRDYNYYGMDVWGQGTKVTVSS VL: QSPSVSVAPGQTARITCGGNNIGSKSVHWYQQKPGQAPVLVVYDDSDRPSGIPERFSGSNSGNTATLTISRVEAGDEADYYCQVWDSSSDHWVFGGGTKLTVL
0.0006 s⁻¹	38.6 nM	17.2 nM			2.4.1 (antibody, V domains shown, Fully human hybridoma IgG, kappa (Vk)) VH: QVQLMQSGAEVKKPGASVKVSCKASGYTFTSYGISWVRQAPGQGLEWMGWISADNGHTNYAQKLQGRVTMTTDTSTSTAYMELRSLRSDDTAVYYCARDGELLNYYYYYGMDVWGQGTTVTVSS VL: DIQMTQSPSSLSASVGDRVTITCRASQGIRDDLGWFQQKPGKAPKRLIYAASSLQSGVPSRFSGSGSGTEFTLTISSLQPEDFATYYCLQHNSYPCSFGQGTKLEFK
0.000303 s⁻¹	3.48 nM	8.24 nM			5.17.1 (antibody, V domains shown, Fully human hybridoma IgG, kappa (Vk)) VH: QVQLQESGPGLVKPSETLSLTCTVSGGSISSYYWSWIRQPPGKGLEWIGYIYYSGNTNYNPSLKSRVTISVDTSKNQFSLKLRSVTAADTAVYYCARYNWNNDLFDYWGQGTLVTVSS VL: DIQMTQSPSSLSASVGDRVTITCQASQDINNYLNWYQQKPGKAPNLLIYDASNLETGVPSRFSGSGSGTDFTFTISSLQPADIATYYCQQYDDFPLTFGGGTKVEIK
0.000105 s⁻¹	5.29 nM	10.4 nM			5.31.1 (antibody, V domains shown, Fully human hybridoma IgG, kappa (Vk)) VH: QVQLVESGGGVVQPGRSLRLSCAASGFTFSSYGMHWVRQAPGKGLEWVAVIWYDGRNKYYADSVKGRFTISRDNSKNTLYLQMNSLRAEDTAVYYCARGGGAVADYNYYYGMDVWGQGTTVTVSS VL: DIQVTQSPSSLSASVGDRVTITCQASQDISNYLNWYQQKPGKAPKFLIYDASNLEAGVPSRFSGSGSGTDFTFTISSLQPEDIATYYCQQYDNLPLTFGGGTKVEIK
0.000281 s⁻¹	3.75 nM	7.24 nM			5.40.1 (antibody, V domains shown, Fully human hybridoma IgG, kappa (Vk)) VH: QVLLQESGPGLVKPSETLSLTCTVSGGSISSYYWSWIRQTPGKGLEWIGYVYYSGSTSYNPSLKSRVTISMYTSKTEFSLKLSSVTAADTAVYYCARYNWNNDLFDYWGQGTLVTVSS VL: DIRLTQSPSSLSASVGDRVTITCQASQDISNYLNWYQQEPGKAPKLLIYDASNLETGVPSRFSGSGSGTDFTFTISSLQPEDIATYYCQQYDNFPLTFGGGTKVEIK
0.000191 s⁻¹	3.75 nM	5.7 nM			5.78.1 (antibody, V domains shown, Fully human hybridoma IgG, kappa (Vk)) VH: QVQLVESGGGVVQPGRSLRLSCAASGFTFSSYGMHWVRQAPGKGLEWVAVILYDGSDNYYADSVKGRFTISRDNSKNTLYLQMNSLRAEDTAVYYCAREGIAVAGDYYYYGMDVWGQGTTVTVSS VL: EIVLTQSPGTLSVSPGERATLSCRASQSVSSSYLAWYQQKPGQAPRLLIYGASGRATGIPDRFSGSGSGTDFILTISRLEPEDFAVYYCQQYGSSFTFGGGTKVEIK
0.000525 s⁻¹	4.21 nM	5.87 nM			5.65.1 (antibody, V domains shown, Fully human hybridoma IgG, lambda (Vl)) VH: EVQLLESGGGLVQPGGSLRLSCAASGFTSGNYAMSWVRQAPGKGLEWVSAISGGGGTTYYADSVEGRFTISRDNSKNTLYLQLNSLRAEDTAVYYCAKEFGELEPRFDYWGQGTLVTVSS VL: SYVLTQPPSVSVAPGQTARITCGGNNIGSKSVHWYQQKPGQAPVLVVYDDSDRPSGIPERFSGSNSGNTATLTISRVEAGDEADYYCQVLDSSSDHVIFGGGTKLTVL
0.000241 s⁻¹	2.55 nM	4.09 nM			5.76.1 (antibody, V domains shown, Fully human hybridoma IgG, lambda (Vl)) VH: QLQLQESGPGLVKPSETLSLTCTVSGGSISSSNYYWGWIRQPPGKGLEWIGTIYYSGSTYYTPSLKSRVTISVDTSKNQFSLKLSSVTAADTAVYYCARERAIAVAAIVFFDYWGQGTLVTVSS VL: SYVLTQPPSVSVAPGQTARITCGGNNIGSESVHWYQQKPGQAPVLVVYDDSDRPSGIPERFSGSNSGNTATLTISRVEAGDEADYYCQVWDSSNDHVVFGGGTKLTVL
0.000251 s⁻¹	3.95 nM	2.57 nM	0.125 nM		6.147.4 (antibody, V domains shown, Fully human hybridoma IgG, lambda (Vl)) VH: QVQLVESGGGVVQPGRSLRLSCAASGFTFSRYDMHWVRQAPGKGLEWVAIIFYDGSNKYYADPVKGRFTISRDNSKNTLYLQMNSLRAEDTAVYYCATLAAAFDYWGQGTLVTVSS VL: YVLTQPPSVSVAPGQTARITCGGNNIGSKSVHWYQQKPGQAPVLVVYDDSDRPSEIPERFSGSNSGNTATLTISRVEAGDEADYYCQVWDSSSDHVVFGGGTRLTVL
0.00024 s⁻¹	10.7 nM	34.7 nM			2.20.1 (antibody, V domains shown, Fully human hybridoma IgG, kappa (Vk)) VH: QVQLVESGGGVVQPGRSLRLSCAASGFTFSSYGMHWVRQAPGKGLEWVAVISYDGSDKYYADSVKGRFTISRDNSKNTLYLQMNSLRAEDTAVYYCARDQWGGSPAGPWGQGTLVTVSS VL: DIVMTQTPLSLSVIPGQPASISCKSSQSLLHSDGKTYLYWYLQRPGQPPQLLIYEVSNRFSGVPHRLSGSGSGTDFTLKISRVEAEDVGVYYCMQSIQVPWTFGQGTKVEIK
0.0013 s⁻¹	32.1 nM	89.1 nM			2.41.1 (antibody, V domains shown, Fully human hybridoma IgG, kappa (Vk)) VH: QVQLVESGGGVVQPGRSLRLSCAASGFTFSSYGMHWVRQAPGKGLEWVAVISYDGSDKYYADSVKGRFTISRDNSKNTLYLQMNSLRAEDTAVYYCARAGYSLYYYYGMDVWGQGTTVTVSS VL: DIVMTQTPLSLSVTPGQPASISCKSSQSLLHSDGKTYLYWYLQKPGQPPQLLIYEVSNRFSGVPDRFSGSGSGTDFTLKISRVEAEDVGVYYCMQSKQLPFTFGPGTKVDIK
0.000209 s⁻¹	9.78 nM	3.93 nM	0.11 nM		6.139.5 (antibody, V domains shown, Fully human hybridoma IgG, kappa (Vk)) VH: QVQLVESGGGVVQPGRSLRLSCAASGFTFSSYGMHWVRQAPGKGLEWVAVISYDGGDQYYADSVKGRFTISRDNSKNTLYLQMNSLRTEDTAEYYCARELRVLWGQGTLVTVSS VL: DIVMTQTPLSLSVTPRQPASISCKSSQSLLHSDGKTYLYWYLQKPGQPPQFLIYEVSNRFSGVPDRFSGSGSGTDFTLKISRVEAEDVGVYYCMQSIQLPWTFGQGTKVEIK

— patent US20210040189A1 (Amgen, published 2021)
